Assay results from the nanobody polyreactivity screen of Harvey et al. (2022).

Experiment: yeast display, Sf9 membrane polyspecificity reagent, FACS + sequencing; frameworks hold sequencing errors
In short: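 Polyreactivity labels are assigned by the sorting gate from which each nanobody was recovered. The gates were low and high (top ~1%), set on anti-HA fluorescence for expression and streptavidin fluorescence for reagent binding. Before sorting, galactose-induced (36–48 hours) yeast display cells were stained for 1 hour at 4 °C with 10% biotinylated, detergent-solubilized Sf9 membrane reagent.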

Sequence: QVQLVESGGGLVQAGGSHRLSCAASGRTFRYNAMGWYRQAPGKERELVAAISGRGSSTYYADSVKGRFTISRDNAMNTVYLQMNSLKPEETAVYYCAALPASVRRPGWHDYWGQGTQVTVSS
- polyreactivity (PSR sort gate): high polyreactivity

Sequence: QVQLVESGGGLVQAGGSHRLSCAASGRTFYRYPMGWYRQAPGKERELVATINSGTSTSYADSVKGRFTISRDNAKYTVYLQMNSLKPEDTAVYYCAAKLWTLSFSSRFGGMYYWGQGTQVTVSS
- polyreactivity (PSR sort gate): high polyreactivity

Sequence: QVQLVESGGGLVQAGGSHRLSCAASGRTFYSYPMGWYRQAPGKEREIVAAIHWSGTTTYADSVKGRFTISRDNAKNTVYLEMNSLKPDATAVYYCAADRVSYIGAGWFDYWGQGTQVTVSS
- polyreactivity (PSR sort gate): high polyreactivity

Sequence: QVQLVESGGGLVQAGGSHRLSCAASGSIFAIYAMGWYRQAPGKERELVAAISSSSGSTYYADSVKGRFTISRDNAKNTVYLQMNSLKPEDTAVYYCAAESGRRIKYWRGYYYWGQGTQVTVSS
- polyreactivity (PSR sort gate): low polyreactivity

Sequence: QVQLVESGGGLVQAGGSHRLSCAASGSIFRSYAMGWYRQAPGKERELVASISRRGGSTYYADSVKGRFTISRDNAKNTVYLQMNSLIPEDTAVYYCAAVRYNSRVSTTPSEMYYWGQGTQVTVSS
- polyreactivity (PSR sort gate): low polyreactivity

Sequence: QVQLVESGGGLVQAGGSHRLSCAASGSIFTINPMGWYRQAPGKERELVAAIRSGGGTNYADSVKGRFTISRDNAKNTVYLQMISLKPEDTAVYYCAADLWAGKYGEYDYWGQGTQVTVSS
- polyreactivity (PSR sort gate): high polyreactivity

Sequence: QVQLVESGGGLVQAGGSHRLSCAASGSIFTWNGMGWYRQAPGKERELVAAISNGASTNYADSVKGRFTISRDNAKNTVYLQMNSLKPEDTEVDYCAAKSTGRYDYWGQGTQVTVSS
- polyreactivity (PSR sort gate): low polyreactivity

Sequence: QVQLVESGGGLVQAGGSHRLSCAASGSIFVYNAMGCYIQAPGKERELVAGITFIGGSTYYADSVKGRFTISRDNAKNTVYLQMNSLKPEDTAVYYCNADVAPGIFYGYDSWGQGTQVTVSS
- polyreactivity (PSR sort gate): low polyreactivity

Sequence: QVQLVESGGGLVQAGGSHRLSCAASGSTFKNYPMGGYRQAPGQEREFVAAINVSGARTYYADSVKGRFTISRDNAKNTVYLQMNSLKPEDTAVYYCAAYYSGVGYDYWGQGTQVTVSS
- polyreactivity (PSR sort gate): high polyreactivity

Sequence: QVQLVESGGGLVQAGGSHRLSCAASGSTFLRYAMGWYRQAPGKERELVAAITASGGSTYYADSVKGRFTISRDNAKNTVYLQMNCLKAEDTAVYYCAADGRFIGKNSHDLWIYGYYYWGQGTQVTVSS
- polyreactivity (PSR sort gate): low polyreactivity

Sequence: QVQLVESGGGLVQAGGSHRLSCAASGSTFQYYAMGWYRQAPGKERELVAAISKSGGITYYADSVKGRFTISRDYAKYTVYLQMNILKPEDTAVYYCNAYSASGYDYWGQGSQVTVSS
- polyreactivity (PSR sort gate): high polyreactivity

Sequence: QVQLVESGGGLVQAGGSHRLSCAASGSTFTTNAMGWYRQAPGKERELVAAISRRGGSTYYADSVKGRFTISRDNAKNTVYLQMNSLKPEDTAVYYCNAVRAEYEFDYWGQGTQVTVSS
- polyreactivity (PSR sort gate): high polyreactivity

Sequence: QVQLVESGGGLVQAGGSHRLSCAASGSTFYRYAMGWYRQAPGKEREFVAAISTRGGSTHYADSVKGRFTISRDNAKNTVYLQMNSLKPEDTAVYYCNARGYYSVPSNTGIRYYRFDYWGQGTQVTLSS
- polyreactivity (PSR sort gate): low polyreactivity

Sequence: QVQLVESGGGLVQAGGSHRLSCAASGYTFPLYAMGWYRQAPGKERELVADINIGGASTYYADSVKGRFTISRDNAKNTVYLQMNSLKPEDTAVYYCAKEYYDGYFPTFDYDYWGQGTQVTVSS
- polyreactivity (PSR sort gate): low polyreactivity

Sequence: QVQLVESGGGLVQAGGSHRLSCAATGLTFAYYDMGWYRQAPGKERELVAAITSGGTTNYADSVKGRFTISRDNAKNTVYLQMNSLKPEDTAVYYCNADYYSRIVGVRIYDYWGQGTQVTVSS
- polyreactivity (PSR sort gate): low polyreactivity

Sequence: QVQLVESGGGLVQAGGSHRLSCPASGLTFYSNAMGWYRQSPGKERELVASISYRGGITYYADSLKGRFTISRDNAKNTVYLQMNSLKPEDTAVYYGAAGRKGSMYYWGQGTQVTVSS
- polyreactivity (PSR sort gate): high polyreactivity

Sequence: QVQLVESGGGLVQAGGSHRLSCSASGRIFARNVMGWYRQAPGKERELVAAITYSGGRTYYADSVKGRFTISRDNAKNTVYLQMNSLKPEDTAVYYCNAKSFSPPGYRGFDYWGQGTQVTVSS
- polyreactivity (PSR sort gate): low polyreactivity
